Assay results reported in publication doi:10.1101/2025.03.14.643254.

Molecular target: MRE11 (human) (UniProt P49959)
Assay: cryo-EM structure

Sequence of NBS1 (O60934 whole entry): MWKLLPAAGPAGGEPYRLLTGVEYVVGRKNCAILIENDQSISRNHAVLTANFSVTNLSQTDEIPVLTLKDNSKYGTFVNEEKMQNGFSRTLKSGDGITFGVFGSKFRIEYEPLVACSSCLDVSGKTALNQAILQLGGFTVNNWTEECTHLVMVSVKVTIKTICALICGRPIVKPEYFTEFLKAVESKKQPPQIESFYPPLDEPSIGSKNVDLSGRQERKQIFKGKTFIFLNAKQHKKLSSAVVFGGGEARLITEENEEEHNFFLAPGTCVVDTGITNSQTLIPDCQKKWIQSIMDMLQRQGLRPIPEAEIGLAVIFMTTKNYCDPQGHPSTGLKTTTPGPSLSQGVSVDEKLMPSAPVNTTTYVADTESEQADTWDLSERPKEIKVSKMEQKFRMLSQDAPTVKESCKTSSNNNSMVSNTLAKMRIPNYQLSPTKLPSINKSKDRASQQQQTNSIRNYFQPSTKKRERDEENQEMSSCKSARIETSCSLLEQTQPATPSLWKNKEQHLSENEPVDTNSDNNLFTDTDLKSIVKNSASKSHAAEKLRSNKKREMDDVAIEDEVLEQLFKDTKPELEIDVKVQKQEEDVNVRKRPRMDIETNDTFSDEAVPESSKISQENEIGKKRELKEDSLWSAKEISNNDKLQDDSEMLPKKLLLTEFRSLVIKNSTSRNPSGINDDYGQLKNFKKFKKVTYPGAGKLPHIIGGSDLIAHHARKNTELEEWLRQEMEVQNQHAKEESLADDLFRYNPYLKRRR
Sequence of MRE11 (human) (P49959 whole entry): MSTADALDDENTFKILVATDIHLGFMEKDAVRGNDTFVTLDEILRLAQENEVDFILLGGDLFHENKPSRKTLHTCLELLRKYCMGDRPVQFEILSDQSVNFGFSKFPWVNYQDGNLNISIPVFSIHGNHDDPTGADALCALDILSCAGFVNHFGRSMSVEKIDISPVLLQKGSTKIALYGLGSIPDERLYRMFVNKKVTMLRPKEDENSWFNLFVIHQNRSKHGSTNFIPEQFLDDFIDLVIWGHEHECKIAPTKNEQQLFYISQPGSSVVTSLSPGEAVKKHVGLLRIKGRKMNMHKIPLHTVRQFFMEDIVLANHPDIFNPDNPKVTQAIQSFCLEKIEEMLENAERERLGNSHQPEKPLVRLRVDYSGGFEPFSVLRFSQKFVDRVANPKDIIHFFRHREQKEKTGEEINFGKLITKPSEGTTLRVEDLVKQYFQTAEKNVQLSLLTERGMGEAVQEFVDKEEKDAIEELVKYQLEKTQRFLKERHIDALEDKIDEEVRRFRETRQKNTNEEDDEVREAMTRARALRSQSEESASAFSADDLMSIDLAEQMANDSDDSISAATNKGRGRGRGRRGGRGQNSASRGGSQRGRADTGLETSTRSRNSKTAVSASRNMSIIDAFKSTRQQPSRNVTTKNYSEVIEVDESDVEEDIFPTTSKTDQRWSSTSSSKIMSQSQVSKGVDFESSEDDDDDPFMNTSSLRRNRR
Sequence of MRE11 (P49959 whole entry): as above

Substance | stoichiometry N | stoichiometry N (NBS1 per MRE11 dimer)
MRE11 (from UniProt P49959) (natural protein) | 2 | 
NBS1 (from UniProt O60934) (natural protein) |  | 1
